Here are results for 21 molecules from US20240327535A1 (EISAI R AND D MANAGEMENT, published 2024).

The target of the assay is T1, extracellular domain of human BCMA (human, UniProt Q02223 1-54).
T1 construct: amine-linked to Octet AR2G tips; also called hsBCMA; BCMA (human)
T1 sequence: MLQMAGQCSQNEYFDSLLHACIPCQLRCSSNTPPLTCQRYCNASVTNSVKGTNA
As to the kind of experiment: Octet BLI; Fab 200 nM.

B1: AB200-R1H26-R2Vk28 (Fab, V domains shown)
VH: QVQLVQSGAEVKKPGSSVKVSCKASGGSFSNYWMHWVRQAPGQGLEWMGATYRIHSDTFYNQKFKGRVTITADKSTSTAYMELSSLRSEDTAVYYCARGAIYHGYDVLDNWGQGTLVTVSS
VL: DIQMTQSPSSLSASVGDRVTITCRASQSISSYLNWYQQKPGKAPKLLIYATSNIQSGVPSRFSGSGSGTDFTLTISSLQPEDFATYYCQQFRKIPWTFGQGTKLEIKR
In turn, B1 showed a dissociation constant Kd of 2.68 nM.

B2: AB200-R1H26-R2Vk44 (Fab, V domains shown)
VH: QVQLVQSGAEVKKPGSSVKVSCKASGGSFSNYWMHWVRQAPGQGLEWMGATYRIHSDTFYNQKFKGRVTITADKSTSTAYMELSSLRSEDTAVYYCARGAIYHGYDVLDNWGQGTLVTVSS
VL: DIQMTQSPSSLSASVGDRVTITCRASQSISSYINWYQQKPGKAPKLLIYATSNLQIGVPSRFSGSGSGTDFTLTISSLQPEDFATYYCQQYRRLPWSFGQGTKLEIKR
The molecule B2 came in with a Kd of 1.28 nM.

B3: AB200-R1H26-R2Vk47 (Fab, V domains shown)
VH: QVQLVQSGAEVKKPGSSVKVSCKASGGSFSNYWMHWVRQAPGQGLEWMGATYRIHSDTFYNQKFKGRVTITADKSTSTAYMELSSLRSEDTAVYYCARGAIYHGYDVLDNWGQGTLVTVSS
VL: DIQMTQSPSSLSASVGDRVTITCRASQSISSYINWYQQKPGKAPKLLIYATSNLQIGVPSRFSGSGSGTDFTLTISSLQPEDFATYYCQQYRKIPWSFGQGTKLEIKR
In turn, B3 showed a Kd of 1.73 nM.

B4: AB200-R1H26-R2Vk32 (Fab, V domains shown)
VH: QVQLVQSGAEVKKPGSSVKVSCKASGGSFSNYWMHWVRQAPGQGLEWMGATYRIHSDTFYNQKFKGRVTITADKSTSTAYMELSSLRSEDTAVYYCARGAIYHGYDVLDNWGQGTLVTVSS
VL: DIQMTQSPSSLSASVGDRVTITCRASQSISSYLNWYQQKPGKAPKLLIYATSNLQIGVPSRFSGSGSGTDFTLTISSLQPEDFATYYCQQYRKIPWSFGQGTKLEIKR
In turn, B4 had a Kd of 1.93 nM.

B5: AB200-R1H26-R2Vk41 (Fab, V domains shown)
VH: QVQLVQSGAEVKKPGSSVKVSCKASGGSFSNYWMHWVRQAPGQGLEWMGATYRIHSDTFYNQKFKGRVTITADKSTSTAYMELSSLRSEDTAVYYCARGAIYHGYDVLDNWGQGTLVTVSS
VL: DIQMTQSPSSLSASVGDRVTITCRASQSISSYINWYQQKPGKAPKLLIYATSNIQSGVPSRFSGSGSGTDFTLTISSLQPEDFATYYCQQFRRLPWTFGQGTKLEIKR
In turn, B5 had an equilibrium dissociation constant (Kd) of 1.87 nM.

B6: AB200-R1H26-R2Vk31 (Fab, V domains shown)
VH: QVQLVQSGAEVKKPGSSVKVSCKASGGSFSNYWMHWVRQAPGQGLEWMGATYRIHSDTFYNQKFKGRVTITADKSTSTAYMELSSLRSEDTAVYYCARGAIYHGYDVLDNWGQGTLVTVSS
VL: DIQMTQSPSSLSASVGDRVTITCRASQSISSYLNWYQQKPGKAPKLLIYATSNLQIGVPSRFSGSGSGTDFTLTISSLQPEDFATYYCQQFRRLPWTFGQGTKLEIKR
On to B6, for which binding was put at a Kd of 1.1 nM.

B7: AB200-R1H26-R2Vk37 (Fab, V domains shown)
VH: QVQLVQSGAEVKKPGSSVKVSCKASGGSFSNYWMHWVRQAPGQGLEWMGATYRIHSDTFYNQKFKGRVTITADKSTSTAYMELSSLRSEDTAVYYCARGAIYHGYDVLDNWGQGTLVTVSS
VL: DIQMTQSPSSLSASVGDRVTITCRASQSISSYINWYQQKPGKAPKLLIYATSNLQSGVPSRFSGSGSGTDFTLTISSLQPEDFATYYCQQYRKIPWSFGQGTKLEIKR
In turn, B7 had a dissociation constant (Kd) of 2.3 nM.

B8: AB200-R1H26-R2Vk33 (Fab, V domains shown)
VH: QVQLVQSGAEVKKPGSSVKVSCKASGGSFSNYWMHWVRQAPGQGLEWMGATYRIHSDTFYNQKFKGRVTITADKSTSTAYMELSSLRSEDTAVYYCARGAIYHGYDVLDNWGQGTLVTVSS
VL: DIQMTQSPSSLSASVGDRVTITCRASQSISSYLNWYQQKPGKAPKLLIYATSNLQIGVPSRFSGSGSGTDFTLTISSLQPEDFATYYCQQFRKIPWTFGQGTKLEIKR
In turn, B8 displayed an equilibrium dissociation constant (Kd) of 1.74 nM.

B9: AB200-R1H26-R2Vk46 (Fab, V domains shown)
VH: QVQLVQSGAEVKKPGSSVKVSCKASGGSFSNYWMHWVRQAPGQGLEWMGATYRIHSDTFYNQKFKGRVTITADKSTSTAYMELSSLRSEDTAVYYCARGAIYHGYDVLDNWGQGTLVTVSS
VL: DIQMTQSPSSLSASVGDRVTITCRASQSISSYINWYQQKPGKAPKLLIYATSNLQIGVPSRFSGSGSGTDFTLTISSLQPEDFATYYCQQFRRLPWTFGQGTKLEIKR
Molecule B9 had a Kd of 1.35 nM.

B10: AB200-R1H26-R2Vk48 (Fab, V domains shown)
VH: QVQLVQSGAEVKKPGSSVKVSCKASGGSFSNYWMHWVRQAPGQGLEWMGATYRIHSDTFYNQKFKGRVTITADKSTSTAYMELSSLRSEDTAVYYCARGAIYHGYDVLDNWGQGTLVTVSS
VL: DIQMTQSPSSLSASVGDRVTITCRASQSISSYINWYQQKPGKAPKLLIYATSNLQIGVPSRFSGSGSGTDFTLTISSLQPEDFATYYCQQFRKIPWTFGQGTKLEIKR
With B10, the dissociation constant (Kd) was found to be 2.31 nM.

B11: AB200-R1H26-R2Vk36 (Fab, V domains shown)
VH: QVQLVQSGAEVKKPGSSVKVSCKASGGSFSNYWMHWVRQAPGQGLEWMGATYRIHSDTFYNQKFKGRVTITADKSTSTAYMELSSLRSEDTAVYYCARGAIYHGYDVLDNWGQGTLVTVSS
VL: DIQMTQSPSSLSASVGDRVTITCRASQSISSYINWYQQKPGKAPKLLIYATSNLQSGVPSRFSGSGSGTDFTLTISSLQPEDFATYYCQQFRRLPWTFGQGTKLEIKR
The molecule B11 registered a Kd of 1.67 nM.

B12: AB200-R1H26-R2Vk38 (Fab, V domains shown)
VH: QVQLVQSGAEVKKPGSSVKVSCKASGGSFSNYWMHWVRQAPGQGLEWMGATYRIHSDTFYNQKFKGRVTITADKSTSTAYMELSSLRSEDTAVYYCARGAIYHGYDVLDNWGQGTLVTVSS
VL: DIQMTQSPSSLSASVGDRVTITCRASQSISSYINWYQQKPGKAPKLLIYATSNLQSGVPSRFSGSGSGTDFTLTISSLQPEDFATYYCQQFRKIPWTFGQGTKLEIKR
In turn, B12 displayed a Kd of 2.85 nM.

B13: AB200-R1H26-R2Vk42 (Fab, V domains shown)
VH: QVQLVQSGAEVKKPGSSVKVSCKASGGSFSNYWMHWVRQAPGQGLEWMGATYRIHSDTFYNQKFKGRVTITADKSTSTAYMELSSLRSEDTAVYYCARGAIYHGYDVLDNWGQGTLVTVSS
VL: DIQMTQSPSSLSASVGDRVTITCRASQSISSYINWYQQKPGKAPKLLIYATSNIQSGVPSRFSGSGSGTDFTLTISSLQPEDFATYYCQQYRKIPWSFGQGTKLEIKR
B13: the Kd was 2.42 nM.

B14: AB200-R1H26-R2Vk40 (Fab, V domains shown)
VH: QVQLVQSGAEVKKPGSSVKVSCKASGGSFSNYWMHWVRQAPGQGLEWMGATYRIHSDTFYNQKFKGRVTITADKSTSTAYMELSSLRSEDTAVYYCARGAIYHGYDVLDNWGQGTLVTVSS
VL: DIQMTQSPSSLSASVGDRVTITCRASQSISSYINWYQQKPGKAPKLLIYATSNIQSGVPSRFSGSGSGTDFTLTISSLQPEDFATYYCQQYRRIPWTFGQGTKLEIKR
Molecule B14 yielded a Kd of 2.34 nM.

B15: AB200-R1H26-R2Vk35 (Fab, V domains shown)
VH: QVQLVQSGAEVKKPGSSVKVSCKASGGSFSNYWMHWVRQAPGQGLEWMGATYRIHSDTFYNQKFKGRVTITADKSTSTAYMELSSLRSEDTAVYYCARGAIYHGYDVLDNWGQGTLVTVSS
VL: DIQMTQSPSSLSASVGDRVTITCRASQSISSYINWYQQKPGKAPKLLIYATSNLQSGVPSRFSGSGSGTDFTLTISSLQPEDFATYYCQQYRRIPWTFGQGTKLEIKR
In the case of B15, binding was characterised by a dissociation constant (Kd) of 1.76 nM.

B16: AB200-R1H26-R2Vk34 (Fab, V domains shown)
VH: QVQLVQSGAEVKKPGSSVKVSCKASGGSFSNYWMHWVRQAPGQGLEWMGATYRIHSDTFYNQKFKGRVTITADKSTSTAYMELSSLRSEDTAVYYCARGAIYHGYDVLDNWGQGTLVTVSS
VL: DIQMTQSPSSLSASVGDRVTITCRASQSISSYINWYQQKPGKAPKLLIYATSNLQSGVPSRFSGSGSGTDFTLTISSLQPEDFATYYCQQYRRLPWSFGQGTKLEIKR
In the case of B16, the Kd was found to be 1.55 nM.

B17: AB200-R1H26-R2Vk43 (Fab, V domains shown)
VH: QVQLVQSGAEVKKPGSSVKVSCKASGGSFSNYWMHWVRQAPGQGLEWMGATYRIHSDTFYNQKFKGRVTITADKSTSTAYMELSSLRSEDTAVYYCARGAIYHGYDVLDNWGQGTLVTVSS
VL: DIQMTQSPSSLSASVGDRVTITCRASQSISSYINWYQQKPGKAPKLLIYATSNIQSGVPSRFSGSGSGTDFTLTISSLQPEDFATYYCQQFRKIPWTFGQGTKLEIKR
For B17, the Kd was 3.23 nM.

B18: AB200-R1H26-R2Vk45 (Fab, V domains shown)
VH: QVQLVQSGAEVKKPGSSVKVSCKASGGSFSNYWMHWVRQAPGQGLEWMGATYRIHSDTFYNQKFKGRVTITADKSTSTAYMELSSLRSEDTAVYYCARGAIYHGYDVLDNWGQGTLVTVSS
VL: DIQMTQSPSSLSASVGDRVTITCRASQSISSYINWYQQKPGKAPKLLIYATSNLQIGVPSRFSGSGSGTDFTLTISSLQPEDFATYYCQQYRRIPWTFGQGTKLEIKR
On to B18, for which binding was characterised by a dissociation constant (Kd) of 1.57 nM.

B19: AB200-R1H26-R2Vk29 (Fab, V domains shown)
VH: QVQLVQSGAEVKKPGSSVKVSCKASGGSFSNYWMHWVRQAPGQGLEWMGATYRIHSDTFYNQKFKGRVTITADKSTSTAYMELSSLRSEDTAVYYCARGAIYHGYDVLDNWGQGTLVTVSS
VL: DIQMTQSPSSLSASVGDRVTITCRASQSISSYLNWYQQKPGKAPKLLIYATSNLQIGVPSRFSGSGSGTDFTLTISSLQPEDFATYYCQQYRRLPWSFGQGTKLEIKR
In turn, B19 returned an equilibrium dissociation constant (Kd) of 1.18 nM.

B20: AB200-R1H26-R2Vk39 (Fab, V domains shown)
VH: QVQLVQSGAEVKKPGSSVKVSCKASGGSFSNYWMHWVRQAPGQGLEWMGATYRIHSDTFYNQKFKGRVTITADKSTSTAYMELSSLRSEDTAVYYCARGAIYHGYDVLDNWGQGTLVTVSS
VL: DIQMTQSPSSLSASVGDRVTITCRASQSISSYINWYQQKPGKAPKLLIYATSNIQSGVPSRFSGSGSGTDFTLTISSLQPEDFATYYCQQYRRLPWSFGQGTKLEIKR
In turn, B20 came in with a dissociation constant (Kd) of 1.83 nM.

B21: AB200-R1H26-R2Vk30 (Fab, V domains shown)
VH: QVQLVQSGAEVKKPGSSVKVSCKASGGSFSNYWMHWVRQAPGQGLEWMGATYRIHSDTFYNQKFKGRVTITADKSTSTAYMELSSLRSEDTAVYYCARGAIYHGYDVLDNWGQGTLVTVSS
VL: DIQMTQSPSSLSASVGDRVTITCRASQSISSYLNWYQQKPGKAPKLLIYATSNLQIGVPSRFSGSGSGTDFTLTISSLQPEDFATYYCQQYRRIPWTFGQGTKLEIKR
For B21, the Kd was 1.74 nM.

By Kd is commonly meant the concentration at which binding is half-saturated. A high value points to weaker binding.
